# Earlier results, collected in publication PMC7150914.
# Columns and labels:
# CNGA1 (Bos taurus) = CNGA1 (Bos taurus) (UniProt Q00194)
# [1] = biological target: CNGA2 (Rattus norvegicus) (UniProt Q00195)
# [2] = biological target: α-1B glycoprotein (Homo sapiens) (UniProt P04217)
# [3] = biological target: PSP94 (β-microseminoprotein) (Homo sapiens) (UniProt P08118)
# UniProt P08118, sequence (P08118 21-114): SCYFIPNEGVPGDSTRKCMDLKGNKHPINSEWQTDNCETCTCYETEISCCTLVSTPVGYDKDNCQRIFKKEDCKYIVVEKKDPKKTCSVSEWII
# UniProt Q00195, sequence (Q00195 whole entry): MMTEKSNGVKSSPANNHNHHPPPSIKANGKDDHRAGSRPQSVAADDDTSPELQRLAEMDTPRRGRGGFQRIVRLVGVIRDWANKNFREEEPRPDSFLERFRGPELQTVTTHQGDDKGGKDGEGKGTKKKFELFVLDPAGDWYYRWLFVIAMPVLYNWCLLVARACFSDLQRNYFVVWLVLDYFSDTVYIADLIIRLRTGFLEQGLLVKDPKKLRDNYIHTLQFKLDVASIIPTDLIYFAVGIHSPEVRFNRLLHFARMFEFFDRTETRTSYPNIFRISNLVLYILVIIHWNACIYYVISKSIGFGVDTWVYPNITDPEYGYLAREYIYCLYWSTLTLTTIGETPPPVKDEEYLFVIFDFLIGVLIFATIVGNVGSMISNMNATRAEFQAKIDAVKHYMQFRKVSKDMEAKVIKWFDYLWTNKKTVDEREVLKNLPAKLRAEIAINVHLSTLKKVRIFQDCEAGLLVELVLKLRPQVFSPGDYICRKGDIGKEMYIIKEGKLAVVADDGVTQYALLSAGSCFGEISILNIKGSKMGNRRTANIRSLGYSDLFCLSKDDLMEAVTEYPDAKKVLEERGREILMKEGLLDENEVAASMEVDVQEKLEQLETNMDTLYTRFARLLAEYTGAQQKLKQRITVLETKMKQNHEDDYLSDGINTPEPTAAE
# UniProt P04217, sequence (P04217 22-495): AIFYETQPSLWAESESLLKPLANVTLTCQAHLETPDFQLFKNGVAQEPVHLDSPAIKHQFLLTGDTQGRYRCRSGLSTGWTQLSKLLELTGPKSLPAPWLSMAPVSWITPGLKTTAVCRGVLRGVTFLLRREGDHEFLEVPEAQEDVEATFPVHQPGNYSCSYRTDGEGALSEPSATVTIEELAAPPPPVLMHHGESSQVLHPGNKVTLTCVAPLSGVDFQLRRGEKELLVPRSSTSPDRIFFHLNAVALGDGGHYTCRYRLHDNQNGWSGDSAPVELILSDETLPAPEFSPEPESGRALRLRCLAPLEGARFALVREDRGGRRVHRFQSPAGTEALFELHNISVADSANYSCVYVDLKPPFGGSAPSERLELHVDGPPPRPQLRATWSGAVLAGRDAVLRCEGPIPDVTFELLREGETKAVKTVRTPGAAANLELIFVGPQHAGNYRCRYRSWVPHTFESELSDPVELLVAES
# UniProt Q00194, sequence (Q00194 whole entry): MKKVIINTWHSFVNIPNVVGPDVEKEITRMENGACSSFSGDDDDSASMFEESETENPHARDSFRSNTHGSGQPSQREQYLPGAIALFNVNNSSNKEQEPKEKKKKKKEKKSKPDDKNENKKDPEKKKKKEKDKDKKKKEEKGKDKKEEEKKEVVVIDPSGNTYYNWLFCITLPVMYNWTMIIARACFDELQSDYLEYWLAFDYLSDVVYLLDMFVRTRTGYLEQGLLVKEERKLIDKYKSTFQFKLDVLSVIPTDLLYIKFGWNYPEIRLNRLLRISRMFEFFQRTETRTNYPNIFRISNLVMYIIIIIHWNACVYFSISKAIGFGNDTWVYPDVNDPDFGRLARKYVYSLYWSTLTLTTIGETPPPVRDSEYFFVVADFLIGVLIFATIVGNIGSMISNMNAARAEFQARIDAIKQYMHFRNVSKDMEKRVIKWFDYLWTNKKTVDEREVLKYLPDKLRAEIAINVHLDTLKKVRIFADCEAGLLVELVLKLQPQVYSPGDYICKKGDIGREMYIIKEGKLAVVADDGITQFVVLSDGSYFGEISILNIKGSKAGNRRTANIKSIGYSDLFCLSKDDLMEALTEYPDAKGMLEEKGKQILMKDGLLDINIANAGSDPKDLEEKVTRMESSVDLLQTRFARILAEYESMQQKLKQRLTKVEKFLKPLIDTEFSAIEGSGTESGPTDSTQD
Substance,Ki (CNGA1 (Bos taurus)) [nM],Ki [1] [nM],Kd [2] [nM],Kd [3] [nM]
Pseudechetoxin (PsTx) (from UniProt Q8AVA4),70,15,,
CRISP-3 (from UniProt P54108),,,2.8,0.0628
